Data published in article PMC3230630.

What was measured:
[1] = target: wild type (WT) AcrB (E. coli) (UniProt P31224); assay: native gel or EMSA; blue native (BN)-PAGE of freshly purified protein, 4–20% gradient gel, no DTT
[2] = target: CLAcrB_(P223G/V225C/A777C) (E. coli) (UniProt P31224); assay: cross-linking; inter-subunit disulfide trapping (C225–C777) in vivo: membrane vesicles from BW25113ΔacrB extracted in the presence of IAM, SDS-PAGE without DTT, Western blot with anti-AcrB
[3] = target: CLAcrB_(P223G/V225C/A777C) (E. coli) (UniProt P31224); assay: native gel or EMSA; blue native (BN)-PAGE of freshly purified protein, 4–20% gradient gel, no DTT

Substance | stoichiometry N [1] | stoichiometry N [2] | stoichiometry N [3]
wild type (WT) AcrB (from UniProt P31224 1-1049) (natural protein) | 3 | – | –
CLAcrB_(P223G/V225C/A777C) (from UniProt P31224 1-1049) (natural protein) | – | 3 | 3
